Data set [1] deals with IGF2BP2 KH34 (IGF2BP2KH34) (Homo sapiens). Briefly: MST. Conditions: MST: 50 mM phosphate pH 7.0, 150 mM NaCl, 0.05% Tween 20, room temperature, 20 min incubation, 250 nM labeled RNA.
Data set [2] has as its system IGF2BP2 RRM (IGF2BP2RRM) (Homo sapiens). Briefly: MST. Conditions: MST: 50 mM phosphate pH 7.0, 150 mM NaCl, 0.05% Tween 20, room temperature, 20 min incubation, 250 nM labeled RNA.

pKd: −log10 of the molar value.

One may read the pKd as the negative decadic logarithm of the Kd, by convention in mol/L. A higher pKd goes with a low Kd. In data set [1], ZIKV 5' NTR showed a pKd of 6.69.

For ZIKV 3' NTR, the negative logarithm of the Kd (pKd) is 5.80 in data set [2] and 6.38 in data set [1].

Source of the values: paper PMC11578589.
